Test [1] addresses HLA-A*26:01. Kind of test: IEDB peptide-MHC binding, purified MHC/competitive/fluorescence; filed as Kd, often an IC50 or EC50 that approximates it; ≥ and ≤ were set here for values at or beyond the usual limits of such assays. The note with it: source organism: Escherichia coli O139:H28 str. E24377A.
Test [2] has as its target HLA-C*14:02. Kind of test: IEDB peptide-MHC binding, purified MHC/direct/fluorescence; filed as Kd, often an IC50 or EC50 that approximates it; ≥ and ≤ were set here for values at or beyond the usual limits of such assays.
The target of test [3] is HLA-A*11:01. The test can be described thus: IEDB peptide-MHC binding, purified MHC/competitive/fluorescence; ≥ and ≤ were set here for values at or beyond the usual limits of such assays.
Test [4] addresses HLA-A*02:01. The test is described as above. The note with it: source organism: Zaire ebolavirus.
The target in test [5] is HLA-A*03:01. The test is described as above.
Test [6] deals with HLA-B*15:01. The test can be described thus: IEDB peptide-MHC binding, purified MHC/direct/fluorescence; filed as Kd, often an IC50 or EC50 that approximates it; ≥ and ≤ were set here for values at or beyond the usual limits of such assays. The note with it: source organism: Vibrio vulnificus.
In test [7] the target is HLA-B*07:02. The description is as above. As to conditions: source organism: Vibrio vulnificus.
In test [8] the target is HLA-B*27:05. The test is described as above. The note with it: source organism: Vibrio vulnificus.
The target of test [9] is HLA-A*03:01. Described as above. As to conditions: source organism: Vibrio vulnificus.
Test [10] addresses HLA-B*58:01. The description is as above. The note with it: source organism: Vibrio vulnificus.
Test [11] deals with HLA-A*26:01. The description is as above. As to conditions: source organism: Vibrio vulnificus.
Test [12] has as its target HLA-B*44:02. The description is as above. As to conditions: source organism: Vibrio vulnificus.
Test [13] addresses HLA-B*08:01. The description is as above. As to conditions: source organism: Vibrio vulnificus.
Test [14] has as its target HLA-B*40:01. The test is described as above. As to conditions: source organism: Vibrio vulnificus.
The target in test [15] is HLA-A*69:01. The description is as above. As to conditions: source organism: Vibrio vulnificus.
In test [16] the target is HLA-A*11:01. The description is as above. As to conditions: source organism: Vibrio vulnificus.
For test [17], the target named is HLA-A*01:01. Described as above. The note with it: source organism: Vibrio vulnificus.
Test [18] has as its target HLA-A*31:01. The description is as above. The note with it: source organism: Vibrio vulnificus.
Test [19] deals with HLA-B*35:01. Described as above. The note with it: source organism: Vibrio vulnificus.
Test [20] addresses HLA-A*02:01. Described as above. As to conditions: source organism: Vibrio vulnificus.
Test [21] deals with HLA-A*02:17. The test can be described thus: IEDB peptide-MHC binding, purified MHC/competitive/radioactivity; filed as Kd, often an IC50 or EC50 that approximates it; ≥ and ≤ were set here for values at or beyond the usual limits of such assays.
In test [22] the target is HLA-A*02:03. The test is described as above.
For test [23], the target named is HLA-A*02:06. The test is described as above.
In test [24] the target is HLA-A*02:01. Described as above.
Test [25] has as its target HLA-B*51:01. Described as above. As to conditions: source organism: Dengue virus 3 Martinique/1243/1999.
For test [26], the target named is HLA-A*68:02. Described as above. The note with it: source organism: Dengue virus 3 Martinique/1243/1999.
Test [27] deals with HLA-A*26:01. Described as above. The note with it: source organism: Dengue virus 3 Martinique/1243/1999.
Test [28] addresses HLA-A*24:02. The test can be described thus: IEDB peptide-MHC binding, purified MHC/competitive/fluorescence; ≥ and ≤ were set here for values at or beyond the usual limits of such assays. The note with it: source organism: Zaire ebolavirus.
[29] abbreviates: source organism: Zaire ebolavirus.
The mark [30] stands for this setting: source organism: Dengue virus 1 Singapore/S275/1990.
[31] abbreviates: source organism: Dengue virus 1 Brazil/97-11/1997.
Setting [32] is: source organism: Dengue virus 3 China/80-2/1980.
The mark [33] stands for this setting: source organism: Dengue virus 3 Martinique/1243/1999.
Setting [34] is: source organism: Dengue virus 2 Jamaica/1409/1983.

One may read the Kd as the equilibrium constant for the complex coming apart. In the case of ACPDNLLRL, the Kd in test [1] was no less than 20 µM; in test [2] (source organism: Escherichia coli O139:H28 str. E24377A), 1.1 µM.

What is called IC50 is the concentration needed to halve the response being measured. A low value points to greater potency. Regarding ATAHGSTLA, the IC50 in test [3] (setting [29]) was 43.1 µM; in test [4], 54.3 µM.

On to AVLYYHMMK, for which the half-inhibitory concentration (IC50) is 1.97 µM in test [5] (setting [29]), 0.288 µM in test [3] (setting [29]) and no less than 311 µM in [4].

DFPIFNQRY: the Kd in test [6] is no less than 20 µM; in test [7] it was no less than 20 µM; in test [8], no less than 20 µM; in test [9], no less than 20 µM; in test [10], no less than 20 µM; in test [11], 3.83 µM. The Kd in test [12], in [13], in test [14], in test [15], in test [16] and in test [17] was no less than 20 µM each time. Besides, the Kd in [18] is no less than 20 µM; in [19], 0.118 µM; in test [20], no less than 20 µM.

FMTATPPGSV: the Kd in test [21] (setting [30]) was 3.1 µM; in test [22] (setting [31]), 0.00167 µM; in test [23] (setting [31]) it was 0.671 µM; in test [24] (setting [30]) it was 0.0728 µM.

Consider FTMGVLCLAI, for which the Kd was determined as 8.62 µM in [25]; 0.132 µM in [21] (setting [32]); 0.00925 µM in test [22] (setting [33]); 0.0111 µM in test [26]; 1.65 µM in test [27]; 0.00539 µM in test [23] (setting [33]).

GTSNRTPTV: the results for the IC50 in test [5] (setting [29]), in test [3] (setting [29]) and in [4] were 57.2 µM, no less than 128 µM and 1.3 µM, respectively.

As for IVLEFFMMV, the results for the dissociation constant Kd in [21] (setting [32]), in test [26] and in [23] (setting [33]) were 0.131 µM, 0.558 µM and 0.0317 µM, respectively.

Take IYIEGLMHN: the IC50 was no less than 211 µM in [5] (setting [29]), 36.1 µM in test [3] (setting [29]) and 2.63 µM in test [28].

KIGDFGLATVK: the concentration for half-maximal inhibition (IC50) in [5] (source organism: Homo sapiens) worked out at 0.415 µM; in test [3] (source organism: Homo sapiens), 0.032 µM.

KMLMTGTLAV: the dissociation constant Kd in test [21] (setting [30]) came to 0.444 µM; in test [22] (setting [31]), 0.01 µM; in test [23] (setting [31]) it was 0.0474 µM; in test [24] (setting [30]) it was 0.00646 µM.

KMNAKAATL had a Kd in [2] (source organism: Mycobacterium tuberculosis variant bovis BCG str. Pasteur 1173P2) of 0.146 µM.

In the case of LLTGGAMLFL, the dissociation constant Kd in test [21] (setting [32]) was determined as 0.347 µM; in [24] (setting [32]), 0.0474 µM.

With LLVISGVFPV, the dissociation constant Kd in [21] (setting [34]) was determined as 0.00275 µM; in test [22] (setting [34]) it was 0.017 µM; in [23] (setting [34]) it was 0.00072 µM; in [24] (setting [34]), 0.000279 µM.

Source of the values: the Immune Epitope Database (IEDB).
